Source: patent publication CN118126168A

What was measured:
indirect ELISA = substrate: 禽流感病毒NP蛋白 (avian influenza virus); experiment: indirect ELISA
[1] = substrate: 禽流感病毒NP蛋白 (avian influenza virus)

B1: 禽流感病毒NP蛋白的单克隆抗体 (antibody, V domains shown)
VH: EVRLQESRPELVEPGASVKISCNASAYTFSDYWMNCVKQSHGKSLECIGDISPTYDRTSYNHKFKGYATLTVDKSSSSAYIELRSLTSDDSAVYYCARGGYGNYRDYWGKRTTRTVSS
VL: MKYLLATAAAGILLLAAQPAMADVVMSQTTRTLSVSIEQPASISCKSSQSLLHSDGKSYLNWLLQRPRQSPKCLSYLVSRRDSGVPDRVTGSSSGTDVTLGISSVEAEDLRVYYYWQRTHCPITVGSGTKLDIK
Indirect ELISA
  ELISA titre (dilution still positive) (fold dilution): > 102000
[1]
  试纸条灵敏度 (lowest NP concentration detected): 0.18 µg/mL
